# In the DeepSol protein solubility set:
# Assay: soluble on expression in E. coli; label from the status in PepcDB or PDB records
row,Sequence,soluble on expression in E. coli
1,MGSDKIHHHHHHMTTTYPDFLGNSSLQTDTEHWEMEGGAQEVSVTYVLDTSVLLSDPLSLTRFAEHDVVLPIVVITELEAKRHHPDLGFFARQALRMLDELREIHGDLSKPLPIGDEGGHIHVELNHQNTGSLPVGFRLGDNDTRILAVAKNLQEEGHNVVLVSKDLPMRIKASASGIAAQEYRAALARDRGYTGMTHANITDDQLSELYDTGEVRIEELEKLPVNHGFTLKSNSGSALGRMNSDKIIELVPGDQQVFGISGRSAEQRVAIDLLNDDAVGIVSIGGPAGTGKSALALCAGLEAVMERRIQRKIIVFRPLFAVGGQELGYLPGDQEEKMGPWAQAVFDTLSSMVSQNIIDEALSRGLIEVLPLTHIRGRSLHDAFVIVDEAQSLERNVLLTMLSRIGQNSRVVLTHDVAQRDNLRVGRYDGIVSVVEALKDHELFGHITLQRSERSRIAELVTQVLDAPSL,not soluble
2,MAHHHHHHMGTLEAQTQGPGSMQKNMVETEPVQGCRDFPPEAMRCRRHLFDVFHATAKTFGFEEYDAPVLESEELYIRKAGEEITEQMFNFITKGGHRVALRPEMTPSLARLLLGKGRSLLLPAKWYSIPQCWRYEAITRGRRREHYQWNMDIVGVKSVSAEVELVCAACWAMRSLGLSSKDVGIKVNSRKVLQTVVEQAGVTSDKFAPVCVIVDKMEKIPREEVEAQLAVLGLEPTVVDAITTTLSLKSIDEIAQRVGEEHEAVKELRQFFEQVEAYGYGDWVLFDASVVRGLAYYTGIVFEGFDREGKFRALCGGGRYDNLLTTYGSPTPIPCAGFGFGDCVIVELLQEKRLLPDIPHVVDDVVIPFDESMRPHALAVLRRLRDAGRSADIILDKKKVVQAFNYADRVGAVRAVLVAPEEWERGEVQVKMLREGTGKEEGGAERGFAVPLDRLV,soluble
3,MGSDKIHHHHHHCLDVDIVDRVEKEDGFFKTEDHALAAINGVYSTLYAFAYHKTNWAIILPTYEDAMFSTGNAVPATVSNNTHSAGSAPVVNFWGELYNGIKNANEVIARVPSISFKSENDKNRIIAEAYFLRALYHYDLMRLYGGVNGIPIVIEPVTGIENAYVPQSPASKVYEQIISDFEYAAGLNDDDTPRLPKRLDPAYTSGRVTNGAAHAFLAEVYLTLGRWEDAAREAQEVISSEQYTFVNDYQNLWDIEQESLAQTEHIFSVPFFRDKDALADQSLGSNIAHLFNPAGVQVGGKLVSGNPYGKGAGAHRVQKWFIKYFQDDQGNLGYSDPSVDASIDESKLISKDYRIEVTFWRRFQQKNNNTGVLGNIVTVYPAAGGNSQENWGYIRKFIDPQGINNRTNENDMPRLRLSDMYLIRAEALNELGKYTEACQAIDMVRERARKANGTERAYPKYIGSDRPDNIGRTLTKQEFRWLVFMERGLEFAGEQKRWFDLIRMKYDENTQMYDYIKDTFIPSRPAADVQKQGVMAARKKYFPIPFAEVSRNDGVQQNPGY,not soluble
4,MAGKKTITINGVEMEASEEQTVLQLLNNSSIEVPQVCYHPSLGPIETCDTCIVSINGELKRSCSAELKDGDVIDTLSPDVKKAQVIGMDKILYNHELYCTVCDYNNGGCEIHNTVKEMKINHQSIPFDHKPYHKDESHPFYRYDPDQCILCGRCVEACQDVQVTETLTIDWERKRPRVIWDNDVPINESSCVSCGHCSTVCPCNAMMEKGMEGEAGYLTGINNETLRPMIEITKGVETGYGSILAISDMESAMRDERIKKTKTVCTYCGVGCSFDVWTKGRDILKVEPQEEAPANGISTCVKGKFGWDFVNSEERLTKPLIREGDHFREAEWEEALLLIASKFTELKEAFGPDSLAFITSSKCTNEESYLMQKLARGVIGTNNVDNCSRYCQSPATAGLFRTVGYGGDSGSITDIAQADLVLIIGSNTSESHPVLSTRIKRAHKLRGQKVIVADIRKHEMAERSDLFVQPRAGSDIVWLNAIAKYLIENGKADERFLRERVNGRDEYVKSLAPYTLEYAEEKTGIDQETLIQMAEMIGQADSVCALWAMGVTQHIGGSDTSTAISNLLLVTGNYGKPGAGSYPLRGHNNVQGASDFGSMPDRLPGYEKVTDEQVRQKYERVWGVPLPKEPGMTNHEMIEKIHSGQLKAMYVKGEEMGLVDSNINHVHAAYEKLDFFVVQDIFLSRTAEFADVVLPASPSLEKEGTFTNTERRIQRLYQVFEPLGESKPDWQIIMEVANKLGAGWLYEHPADIMEEAAKLSPIYAGVTYERLEGYNSLQWPVNADGKDSPLLFTERFPFPDGKAILYPVQWTEPKEFGEEYDIHVNNGRLLEHFHEGNLTYKSKGISEKTPEVFLEISPELAAERGIQDGTLVRLTSPFGNVKVKCLITDRVKGKEVYLPMNDSGEAAINLLTGSHADKDTDTPAYKETSAKMEILKHDGISPLPKINHRNGNPQPQIGVQVHKKWARKDYIFPGDAVKRGM,not soluble
5,MSKNRDPLLANLNAFKSKVKSAPVIAPAKVGQKKTNDTVITIDGNTRKRTASERAQENTLNSAKNPVLVDIKKEAGSNSSNAISLDDDDDDEDFGSSPSKKVRPGSIAAAALQANQTDISKSHDSSKLLWATEYIQKKGKPVLVNELLDYLSMKKDDKVIELLKKLDRIEFDPKKGTFKYLSTYDVHSPSELLKLLRSQVTFKGISCKDLKDGWPQCDETINQLEEDSKILVLRTKKDKTPRYVWYNSGGNLKCIDEEFVKMWENVQLPQFAELPRKLQDLGLKPASVDPATIKRQTKRVEVKKKRQRKGKITNTHMTGILKDYSHRV,soluble
6,MTTAHISGDWRTRYQHVTSFYFKTNHKVWCKVILSLLHTHIPMIIFIDMKGVNMDLIIQTFPLDGKTLYYVQCPVCKNNRILNSGANVSRIISDDTFRKLCGCTCDVKPATSKVEAPKQVKKAAVKKEAAPKRTGKVLTAVINGKEMTVKEIAEAYDISTSTVRQRINAGKPESEIIAPTKKK,not soluble
7,MLIDDIDFADLYLQQLKLAHRTEKTPDHWDQRAEKMAENCASPTDSYLQQLIAKIDLQGAQTLFDMGCGPGTVSLALADKLTTVYGVDYSQGMLNVAARRAAALKADNVHWIQRAWEEDWSDLPRCDIAVASRSTLVADMRHAMSKLNNQARLRVYTTHLVSTSFVSPAIQRAAGREVIELPNYIFALNVLYQMGIYAHVDFIRGQNCQQDNSTWERFEQNVSWSLGALNDDERERLYHWYQQQDARALAPASRDWALIWWDSVPQEAL,not soluble
8,GPGSMIPGLPPAFDVECNRMEDVFASVKSRTVGKDGNLLSPEESWVQRELQYYENLYTEQQELTVCLVTFNVACKKPPANLAALISLKMAEDTNRPVDLIMVSLQEVDMSASAMLKEETEASTPWVVGLHAAVGADSRSPSNTPYFAFPPKQLVGLLLCVYLRRQLLPYMQEMSVATVATGALGSMGNKGAIGLRLVLHRTSLCLINVHLAAGQSNVVKT,not soluble
9,MGSDKIHHHHHHMLEHGGNLHVASQQYGIAREYWLDLSTGINPQGYPVPEIPASAWHRLPEADPPLERIAASYYGAQRLLVTAGSQAAIQALPRLRQPCRVTVLGPMYAEHAHAWRQQGHQVSEIDYLPSAAMLAETDVLLVCNPNNPTARLLAPSTLLEWHQVLSEHDGWLVVDEAFMDSTPEHSLAAYSHHSGLIILRSLGKFFGLAGARVGFVLAETPLLTRMADLLGPWAVTGPSSIVAQAALADHAWQQHHRAKLLAESRQLADMLRQAGLPARKGCALFQWLKLEHAERLHVQLARQGVWTRHFPALRGVRIGLPSADGWQKLAVALKELQLQDLSD,not soluble
10,MSLKIIILGAGQVGGTLAENLAGENNDITIVDTDSDRLRELQDKFDLRVVNGHGAHPKVLREAGAQDADMLVAVTNSDETNMVACQVAYSLFNTPNKVARIRSPAYLVERDRLFLPESVPVDHLIAPEQLVTDYVRRLIEYPGALQVVDFAGGKVGLVAVKAYYGGPLVGNALSTLRDHMPNIETRVAAIFRQGRSIRPQGTTIIEADDEVFFVAAAGHIRAVMSELQRLESPYRRIMIVGGGNIGAGLARQLEKRYSVKLIERNQKRAEQLSEVLENTIVFCGDAADQELLAEEHIDQIDVFIAVTNEDEANIMSALLAKKMGAKKTMVLIQRSAYVDLVQGGSIDIAISPQQATISALLTHVRRADIANVYSLRRGAAEAIEAIAHGDENTSKVVGKTVGELKLPPGTTIGAIVRGDEVLIAHDRTQIQQDDHVVMFLVDKKYIPEVERLFQPSPFFLEGHHHHHH,soluble
11,MLDDTGERIIPKNMKPMNGMLLEHLARYYFSTPYASGRVLDIACGTGYGSVMVAKTRKTEVDQVLGVDFDADVIHYAKQNYYHPKVSFLVGDAMDPYLRNQIGTFDTILSFETIEHVKDDRLFIERMRQLLKKDGTLVLSTPFGQGRGKPSDEPFHYHQLTEEEFRSLFDSFSEKEVFYQRGVTIEPKRTNVHYAFGVAVCKKLEHHHHHH,soluble
12,MSLKSGTLRVWLFQEVNNKPKEKVVDAALADFEKAHADTKVTVEYIPVETRAQRIKAAFNDPKSAPDVVEFGNTDTAGYVKDGGLADISEEFAAWDEAKDADSTARQSVTVDGKVYGAPYFVGVRALYYRTDVFDELGLKAPRTLAELASTAKRVRAAKPDLYGLAVGGAYTYGAMPFIWANGGDIATGKGGSYASAIDSAAAQKGIKAYTSLFGDANCPAAKCAGMTGNDTVTAFASGKAAMAIGGDFSHQAMEAGAVKGKYAVVPLPGVEPGSIAPAFAGGNNIGVLKSTSHRTLAVDLMKRLASKKAQGELFDAMGFLPTFTDVRQQVAAREPFVKPFVDTLAAGTKFVPASPAWATIDSSLVLPTMFQEVVSGKKDVGAAAGDAARKMDDAFGSAGEGHHHHHH,soluble
13,MSLSQAHFSSWRGHQEFLAPHLIEGRAVRAFIGWAGVMIYDPTLDVIALAKEYARQYQCFAETCGRCAPGKFGGKILFDLLEKIDQGRGEESDLERLVEVGKLMMTTSKCEVGKTTPLPILDLLEAYRPLFVEALGNRSRKERSKKERYIAKITAPCIDACPAHVDIPAYIEGVRDHLLGDSLAATRKSMPLAQVCGRVCPHPCESACRRGDLDEPISIMELKRLGADYEKERHGGFIHPYPPKPRRKDKRVAIIGAGPAGLSSAYYLALEGIMSDVFEALPVLGGEVSVGVPEYRMPIDRYYHDIEAIKSLGVSFWTNHFVSAKELDEMRQKYDAIILATGARISKKLGVKGEEESLGGYAPAIPWLDQINLATKFNLAALPDLRGKSVVCVGGGFTSMDVVRCAVRLGAKRIVMLYRRDEATLIQNTSKEEYHEALEEGVEFLFQCAVQEIKSCGGEIKALLVEEYEVVYEEGARKPSLRRIEREPLFLECDLLIPAVSQEVDRSFIPKEWNLESTSWGSFKTNGKDFSTTLRGVFAAGDCEKGPLTIVNAVGQGKRAASVVSRFLEDGEITLTPEEEMEDWLKKEGVYDRSMPVVGWLAGLVRQESHKEEPLKRREDFREVNQGLSMQEAFAESERCMRCYYISMVALEGHHHHHH,not soluble
14,MIRVIFLDLDKTLLPEYDPEPAIPIVEELKKKGFEIVFNSSKTRAEQEYYREKLNVKGPFIVENGSAIYIPSNYFPFEVPGVKRGEYMVLELGVKVEEIRKALKELEAEYGLKYYGNSTDEEIEKFTKLPKHLIPLAKDREYSETIFLWKREGWEKDLIRKGFKVTMGSRFYAVHGNSDKGKAAKLLLDLYKRVDEVESYAVGDGENDFPMFDVVDFAFLIGDLRHENAENVTSIKDVLKKIAAALEHHHHHH,soluble
15,MASGDLVRYVITVMLHEDTLTEINELNNYLTRDGFLLTMTDDEGNIHELGTNTFGLISTQSEEEIRELVSGLTQSATGKDPEITITTWEEWNSNRK,soluble
16,MGSDKIHHHHHHMVSRSPFESFQWKSDIFNCESTDIDNFYLLLEQEMTRLGMVEKNLGEVGKYKVSLYQSPAAKSGLPSLLISAGFHGEESAGPWGLLHFLSEASADLFERVNLSLLPLVNPTGFSRGHRFNKYGENPNRGFVFENGKPKANEHTSVEGKLLLDHAQLLIAACRDGILTCHEDVLSREAYVYSFEPSQVPGRFSLDLRDTLGGYFPIAVDGEIDACPVKDGLIFNHFDTSFEACLVRSGARVGACTETPALQNFDQRVLANSAAMTHFLALCAPLCD,not soluble
17,MEEQNNNQLQIELKEEVAQGTYANLAIITHSSSEFILDFVRVMPGVPKAGVQSRIIVAPEHAKRLLRALEDNIAKYERAFGPIRISEESPMPPLSVVKGEA,not soluble
